The labels stand for the following.
B1: POU domain, class 4, transcription factor 2, residues 256 to 327; numbered along this chain, Q12837 (parent)
chain: RDLEAFAERFKQRRIKLGVTQADVGSALANLKIPGVGSLSQSTICRFESLTLSHNNMIALKPILQAWLEEAE

± gives the uncertainty stated by the source.

Variants of B1 are the subject of this data set. The experiment in a line: abundance fitness (aPCA) (normalised: wild type 0, dead -1); higher = more abundant; growth selection in yeast, the domain comes from the species named. The settings on record: Homo sapiens.
For the variant RDLEAFAERFKQRRIKLGVTQADVGSALANLKIPGVGSNSQSTICRFESLTLSHNNMIALKPILQAWLEEAE [L39N], the abundance fitness was -0.615 ± 0.35.

With RDLEAFAERFKQRRIKLGVTQADVGSALANLKIPGVGSYSQSTICRFESLTLSHNNMIALKPILQAWLEEAE [L39Y], the abundance fitness is -0.53 ± 0.16.

As to RDLEAFAERFKQRRIKLGVTQADVGSALANLKIPGVGSRSQSTICRFESLTLSHNNMIALKPILQAWLEEAE [L39R], the abundance fitness was -0.718 ± 0.1.

For RDLEAFAERFKQRRIKLGVTQADVGSALANLKIPGVGSKSQSTICRFESLTLSHNNMIALKPILQAWLEEAE [L39K], the abundance fitness is -0.141 ± 0.16.

As for RDLEAFAERFKQRRIKLGVTQADVGSALANLKIPGVGSCSQSTICRFESLTLSHNNMIALKPILQAWLEEAE [L39C], the abundance fitness was -0.168 ± 0.12.

Consider RDLEAFAERFKQRRIKLGVTQADVGSALANLKIPGVGSMSQSTICRFESLTLSHNNMIALKPILQAWLEEAE [L39M], for which the abundance fitness is -0.01 ± 0.087.

As to RDLEAFAERFKQRRIKLGVTQADVGSALANLKIPGVGSGSQSTICRFESLTLSHNNMIALKPILQAWLEEAE [L39G], the abundance fitness is -0.499 ± 0.039.

For RDLEAFAERFKQRRIKLGVTQADVGSALANLKIPGVGSSSQSTICRFESLTLSHNNMIALKPILQAWLEEAE [L39S], the abundance fitness is -0.304 ± 0.062.

On to RDLEAFAERFKQRRIKLGVTQADVGSALANLKIPGVGSDSQSTICRFESLTLSHNNMIALKPILQAWLEEAE [L39D], for which the abundance fitness was -0.413 ± 0.46.

For RDLEAFAERFKQRRIKLGVTQADVGSALANLKIPGVGSPSQSTICRFESLTLSHNNMIALKPILQAWLEEAE [L39P], the abundance fitness is -0.258 ± 0.075.

As to RDLEAFAERFKQRRIKLGVTQADVGSALANLKIPGVGSWSQSTICRFESLTLSHNNMIALKPILQAWLEEAE [L39W], the abundance fitness is -0.387 ± 0.12.

As for RDLEAFAERFKQRRIKLGVTQADVGSALANLKIPGVGSTSQSTICRFESLTLSHNNMIALKPILQAWLEEAE [L39T], the abundance fitness is -0.204 ± 0.096.

Take RDLEAFAERFKQRRIKLGVTQADVGSALANLKIPGVGSFSQSTICRFESLTLSHNNMIALKPILQAWLEEAE [L39F]: the abundance fitness is -0.181 ± 0.14.

As for RDLEAFAERFKQRRIKLGVTQADVGSALANLKIPGVGSQSQSTICRFESLTLSHNNMIALKPILQAWLEEAE [L39Q], the abundance fitness is -0.732 ± 0.17.

RDLEAFAERFKQRRIKLGVTQADVGSALANLKIPGVGSLDQSTICRFESLTLSHNNMIALKPILQAWLEEAE [S40D]: the abundance fitness stood at 0.016 ± 0.3.

As for RDLEAFAERFKQRRIKLGVTQADVGSALANLKIPGVGSLAQSTICRFESLTLSHNNMIALKPILQAWLEEAE [S40A], the abundance fitness is -0.203 ± 0.056.

With RDLEAFAERFKQRRIKLGVTQADVGSALANLKIPGVGSLMQSTICRFESLTLSHNNMIALKPILQAWLEEAE [S40M], the abundance fitness is -0.723 ± 0.42.

Turning to RDLEAFAERFKQRRIKLGVTQADVGSALANLKIPGVGSLPQSTICRFESLTLSHNNMIALKPILQAWLEEAE [S40P], the abundance fitness was -0.193 ± 0.028.

As to RDLEAFAERFKQRRIKLGVTQADVGSALANLKIPGVGSLNQSTICRFESLTLSHNNMIALKPILQAWLEEAE [S40N], the abundance fitness is -0.108 ± 0.41.

For RDLEAFAERFKQRRIKLGVTQADVGSALANLKIPGVGSLCQSTICRFESLTLSHNNMIALKPILQAWLEEAE [S40C], the abundance fitness is -0.131 ± 0.084.

As to RDLEAFAERFKQRRIKLGVTQADVGSALANLKIPGVGSLQQSTICRFESLTLSHNNMIALKPILQAWLEEAE [S40Q], the abundance fitness was -0.293 ± 0.19.

As to RDLEAFAERFKQRRIKLGVTQADVGSALANLKIPGVGSLHQSTICRFESLTLSHNNMIALKPILQAWLEEAE [S40H], the abundance fitness is -0.228 ± 0.09.

RDLEAFAERFKQRRIKLGVTQADVGSALANLKIPGVGSLLQSTICRFESLTLSHNNMIALKPILQAWLEEAE [S40L]: the abundance fitness was -0.671 ± 0.088.

For RDLEAFAERFKQRRIKLGVTQADVGSALANLKIPGVGSLEQSTICRFESLTLSHNNMIALKPILQAWLEEAE [S40E], the abundance fitness is -0.15 ± 0.11.

Turning to RDLEAFAERFKQRRIKLGVTQADVGSALANLKIPGVGSLGQSTICRFESLTLSHNNMIALKPILQAWLEEAE [S40G], the abundance fitness was found to be 0.014 ± 0.067.

On to RDLEAFAERFKQRRIKLGVTQADVGSALANLKIPGVGYLSQSTICRFESLTLSHNNMIALKPILQAWLEEAE [S38Y], for which the abundance fitness was 0.026 ± 0.032.

Regarding RDLEAFAERFKQRRIKLGVTQADVGSALANLKIPGVGRLSQSTICRFESLTLSHNNMIALKPILQAWLEEAE [S38R], the abundance fitness is -0.022 ± 0.045.

In the case of RDLEAFAERFKQRRIKLGVTQADVGSALANLKIPGVGLLSQSTICRFESLTLSHNNMIALKPILQAWLEEAE [S38L], the abundance fitness is -0.045 ± 0.055.

Turning to RDLEAFAERFKQRRIKLGVTQADVGSALANLKIPGVGTLSQSTICRFESLTLSHNNMIALKPILQAWLEEAE [S38T], the abundance fitness is -0.083 ± 0.082.

For RDLEAFAERFKQRRIKLGVTQADVGSALANLKIPGVGWLSQSTICRFESLTLSHNNMIALKPILQAWLEEAE [S38W], the abundance fitness is -0.209 ± 0.093.

As for RDLEAFAERFKQRRIKLGVTQADVGSALANLKIPGVGCLSQSTICRFESLTLSHNNMIALKPILQAWLEEAE [S38C], the abundance fitness was -0.092 ± 0.077.

With RDLEAFAERFKQRRIKLGVTQADVGSALANLKIPGVGHLSQSTICRFESLTLSHNNMIALKPILQAWLEEAE [S38H], the abundance fitness amounted to 0.104 ± 0.12.

Consider RDLEAFAERFKQRRIKLGVTQADVGSALANLKIPGVGQLSQSTICRFESLTLSHNNMIALKPILQAWLEEAE [S38Q], for which the abundance fitness was -0.051 ± 0.12.

Consider RDLEAFAERFKQRRIKLGVTQADVGSALANLKIPGVGILSQSTICRFESLTLSHNNMIALKPILQAWLEEAE [S38I], for which the abundance fitness was -0.146 ± 0.14.

With RDLEAFAERFKQRRIKLGVTQADVGSALANLKIPGVGGLSQSTICRFESLTLSHNNMIALKPILQAWLEEAE [S38G], the abundance fitness was -0.091 ± 0.049.

For the variant RDLEAFAERFKQRRIKLGVTQADVGSALANLKIPGVGELSQSTICRFESLTLSHNNMIALKPILQAWLEEAE [S38E], the abundance fitness was -0.127 ± 0.13.

Consider RDLEAFAERFKQRRIKLGVTQADVGSALANLKIPGVGKLSQSTICRFESLTLSHNNMIALKPILQAWLEEAE [S38K], for which the abundance fitness is -0.127 ± 0.082.

(Values after the Human Domainome abundance scans (Beltran et al. 2025).)
